# Starred links: 1 amine or outer side, 2 acyl side, 3 side chain; linkers in the order of their positions; H or OH if unused. Non-standard residues stand in square brackets, D forms with d. Residues, ends and D or L forms follow the SMILES beside them. Groups on a side chain read outwards from the residue. No end group written: not given here. *: point of attachment. (CH2)18‑OH = polymethylene chain of 18 CH2 units ending in OH (m = 18), OCCCCCCCCCCCCCCCCCC*; C18 diacid = O=C(O)CCCCCCCCCCCCCCCCC(=O)*; γGlu = O=C(O)[C@H](CCC(=O)[*:2])N[*:1]; Dap = NC[C@H](N)C(=O)O; AEEA = NCCOCCOCC(=O)O; Aib = CC(C)(N)C(=O)O
# Legend:
# [1] = biological target: human GLP-1R (constitutively expressed on recombinant HEK293 CRE-luciferase reporter cells) (human) (UniProt P43220); assay: cell-based or functional assay
# GLP-1R = biological target: T1, GLP-1R (Homo sapiens, UniProt P43220); assay: Cell-Based Tag-Lite GLP-1R Receptor Binding FRET Assay
# T1 construct: purchased
# [2] = biological target: human GLP-1R (constitutively expressed on recombinant HEK293 CRE-luciferase reporter cells) (human, UniProt P43220 24-463); assay: cell-based or functional assay
# [3] = biological target: GLP-1R on Tag-Lite Glucagon GLP-1 labeled cells; assay: Tag-Lite GLP-1R binding FRET competition assay on cells, with 2% HSA; competitor: red agonist
# [4] = biological target: GLP-1R on Tag-Lite Glucagon GLP-1 labeled cells; assay: Tag-Lite GLP-1R binding FRET competition assay on cells, absence of HSA; competitor: red agonist
# Chain of GLP-1R on Tag-Lite Glucagon GLP-1 labeled cells (P43220 24-463): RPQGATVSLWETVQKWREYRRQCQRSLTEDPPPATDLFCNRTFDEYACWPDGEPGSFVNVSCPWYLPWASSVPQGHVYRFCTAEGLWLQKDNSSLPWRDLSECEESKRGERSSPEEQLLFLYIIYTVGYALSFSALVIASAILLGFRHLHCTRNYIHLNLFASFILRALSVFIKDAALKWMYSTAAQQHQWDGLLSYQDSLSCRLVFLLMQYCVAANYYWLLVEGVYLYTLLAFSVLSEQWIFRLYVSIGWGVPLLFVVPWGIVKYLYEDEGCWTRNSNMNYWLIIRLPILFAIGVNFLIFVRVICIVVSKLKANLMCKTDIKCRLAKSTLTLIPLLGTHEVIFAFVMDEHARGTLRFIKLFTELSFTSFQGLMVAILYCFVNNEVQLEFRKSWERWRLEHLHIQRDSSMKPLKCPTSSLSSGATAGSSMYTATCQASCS
# Chain of human GLP-1R (constitutively expressed on recombinant HEK293 CRE-luciferase reporter cells) (human) (P43220 24-463): as above
# T1 sequence (P43220 24-463): as above
Molecule,"biological IC50, CRE-luciferase reporter assay [1]",IC50 (GLP-1R; absence of HSA) [µM],IC50 (GLP-1R; with 2% HSA) [µM],"biological IC50, CRE-luciferase reporter assay [2] [nM]",IC50 [3] [µM],IC50 [4] [µM]
liraglutide (peptide),30 pM,,,,,
CC[C@H](C)[C@H](NC(=O)[C@H](Cc1ccccc1)NC(=O)[C@H](CCC(=O)O)NC(=O)[C@H](CCCCNC(=O)COCCOCCNC(=O)COCCOCCNC(=O)CC[C@H](NC(=O)CCCCCCCCCCCCCCCCC(=O)O)C(=O)O)NC(=O)[C@H](C)NC(=O)[C@H](C)NC(=O)[C@H](CCC(N)=O)NC(=O)CNC(=O)[C@H](CCC(=O)O)NC(=O)C(C)(C)NC(=O)[C@H](Cc1ccc(O)cc1)NC(=O)[C@H](CO)NC(=O)[C@H](CO)NC(=O)[C@@H](NC(=O)[C@H](CC(=O)O)NC(=O)[C@H](CO)NC(=O)[C@@H](NC(=O)[C@H](Cc1ccccc1)NC(=O)[C@@H](NC(=O)CNC(=O)[C@H](CCC(=O)O)NC(=O)C(C)(C)NC(=O)[C@@H](N)Cc1c[nH]cn1)[C@@H](C)O)[C@@H](C)O)C(C)C)C(=O)N[C@@H](C)C(=O)N[C@@H](Cc1c[nH]c2ccccc12)C(=O)N[C@@H](CC(C)C)C(=O)N[C@H](C(=O)NCC(=O)NCC(=O)N1CCC[C@H]1C(=O)N[C@@H](CO)C(=O)N[C@@H](CO)C(=O)NCC(=O)N[C@@H](C)C(=O)N1CCC[C@H]1C(=O)N1CCC[C@H]1C(=O)N1CCC[C@H]1C(=O)N[C@@H](CO)C(N)=O)C(C)C [APi3713] (H-H[Aib]EGTFTSDVSSY[Aib]EGQAAK([AEEA-AEEA-γGlu-C18 diacid])EFIAWLVGGPSSGAPPPS-NH2; N-terminus assumed),,1.59,95.9,,,
semaglutide (peptide),0.4 nM,,,,,
Y[Aib]EGTFTSDVSS[Aib]LEGQAAK([AEEA-AEEA-γGlu-(CH2)18‑OH])EFIAWLVRGRG [APi3709],,,,~5.4,129,2.48
H[Aib]EGTFTSDVSSY[Aib]EGQAAK([AEEA-AEEA-γGlu-(CH2)18‑OH])EFIAWLVGGPSSGAPPPS-NH2 [APi3713],,,,~0.57,95.9,1.59
"HXEGTFTSDVSSXLEGQAAKEFIAWLVRGRG (GLP-1 numbering (first residue is Xaa7): Aib-ψ[CH2NH] at Xaa8 (reduced peptide bond between Aib and the next residue); Aib at Xaa19; ε-amino group of Lys26 substituted with AEEA-AEEA-γ-Glu-(CH2)m-OH, m is 18) [APi3710]",,,,,809,4.08
"HXEGTFTSDVSSXLEGQAAKEFIAWLVRGRG (GLP-1 numbering (first residue is Xaa7): Aib at Xaa8 and Xaa19; ε-amino group of Lys26 substituted with AEEA-AEEA-γ-Glu-(CH2)m-OH, m is 18) [APi3711]",,,,~0.66,77.8,0.898
H[Aib]EGTFTSDVSS[Aib]LEGQAAK([AEEA-AEEA-γGlu-(CH2)18‑OH])EFIAWLVRG[Dap]G [APi3712],,,,~0.66,179,1.7

# Source: patent US20250074964A1 (Ambio, Inc., priority 2023, published 2025)
